In article PMC8050391, “Structure of 3-mercaptopropionic acid dioxygenase with a substrate analog reveals bidentate substrate binding at the iron center” (The Journal of Biological Chemistry, 2021):

Key:
[1] = molecular target: T1, 3-mercaptopropionic acid dioxygenase (Av3MDO) (Azotobacter vinelandii, UniProt C1DN94); assay: X-ray crystal structure ([…] Å); competitive inhibition by O2 electrode steady-state kinetics; format: biochemical
T1 construct: gene Avin_30970; His-tag removed by thrombin; N- and C-termini not modelled
T1 sequence (C1DN94 entry or part of it): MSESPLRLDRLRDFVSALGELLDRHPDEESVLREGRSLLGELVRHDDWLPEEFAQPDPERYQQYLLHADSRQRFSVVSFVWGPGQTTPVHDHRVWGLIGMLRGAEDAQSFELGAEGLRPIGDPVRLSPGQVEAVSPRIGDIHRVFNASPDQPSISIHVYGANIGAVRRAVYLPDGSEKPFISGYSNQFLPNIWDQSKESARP

[2] = molecular target: Azotobacter vinelandii 3-mercaptopropionic acid dioxygenase (Azotobacter vinelandii); assay: crystal structure; crystal form B, space group P6(1)22, four monomers in the asymmetric unit; HEPES pH 7, pentaerythritol propoxylate, sodium thiocyanate, 22 °C; thiocyanate bound at the iron
[3] = molecular target: Azotobacter vinelandii 3-mercaptopropionic acid dioxygenase (Azotobacter vinelandii); assay: crystal structure; crystal form A, space group P3(1), 12 monomers in the asymmetric unit; 100 mM MES pH 6, 30% poly(acrylic acid sodium salt) 5100, 10% ethanol, 50 mM MgCl2, 22 °C; complex with 3HPA and chloride

Compound	Ki [1] [µM]	stoichiometry N [2]	stoichiometry N [3]
O=C(O)CCO [3HPA, 3-hydroxypropionic acid]	280 ± 26		
Azotobacter vinelandii 3-mercaptopropionic acid dioxygenase (enzyme)		2	2
